In assay [1] the target is high-affinity receptor for bFGF on bovine capillary endothelial (BCE) cells (bovine (endogenous in BCE cells)). Description: radioligand binding.
Assay [2] shares this target. Description: radioligand binding. The source holds these as a separate data set.

Like-named read-outs stand apart in the source and are kept apart here.

“125I-labeled basic fibroblast growth factor (125I-bFGF) (from UniProt P09038 1-288) (ligand)”: the fmol bFGF bound to high affinity sites in assay [1] came out at 3.1 fmol; in assay [2] it was 2.6 fmol.

(Values after publication PMC2115214.)
